Source: PMC4705692
Read-outs that look alike come from different tables or passages of the source.

Tests used:
Experiment in all cases: EMSA
[1] = molecular target: T1, Orf1 (HTH_42 DNA glycosylase) (Streptomyces sahachiroi ATCC33158, UniProt B4XYC8 1-371)
T1 sequence: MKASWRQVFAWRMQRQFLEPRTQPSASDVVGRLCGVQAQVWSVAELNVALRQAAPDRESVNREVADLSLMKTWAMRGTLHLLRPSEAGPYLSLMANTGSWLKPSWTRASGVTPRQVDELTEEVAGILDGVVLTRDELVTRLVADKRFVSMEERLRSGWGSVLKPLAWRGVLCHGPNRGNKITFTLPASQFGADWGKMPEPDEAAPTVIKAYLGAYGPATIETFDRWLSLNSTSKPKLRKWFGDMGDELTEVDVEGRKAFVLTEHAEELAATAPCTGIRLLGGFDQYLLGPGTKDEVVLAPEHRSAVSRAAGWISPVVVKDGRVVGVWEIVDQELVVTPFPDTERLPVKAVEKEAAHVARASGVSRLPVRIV

[2] = molecular target: T1, Orf1 (HTH_42 DNA glycosylase); remark: listed apart in the source
[3] = molecular target: T1, Orf1 (HTH_42 DNA glycosylase); remark: listed apart in the source

B1: AAT ODN (dsDNA)
DNA 1: TATTATTATATTATTATTATT
DNA 2: AATAATAATAATATAATAATA
**Q.** Does B1 bind [1]?
**A.** binds

B2: GCC ODN (dsDNA)
DNA 1: TATTATTATGCCATTATTATT
DNA 2: AATAATAATGGCATAATAATA
**Q.** Does B2 bind [2]?
**A.** binds

B3: GCT ODN (dsDNA)
DNA 1: TATTATTATGCTATTATTATT
DNA 2: AATAATAATAGCATAATAATA
**Q.** Does B3 bind [1]?
**A.** binds

B4: GCC ODN azinomycin B-adducted (dsDNA)
DNA 1: TATTATTATGCCATTATTATT
DNA 2: AATAATAATGGCATAATAATA
modifications: azinomycin B interstrand cross-link G-G at the GCC site (mixture with monoadduct possible)
**Q.** Does B4 bind [3]?
**A.** binds

B5: GAT ODN (dsDNA)
DNA 1: TATTATTATGATATTATTATT
DNA 2: AATAATAATATCATAATAATA
**Q.** Does B5 bind [1]?
**A.** binds
